From PMC5843810, “18th European Symposium on Radiopharmacy and Radiopharmaceuticals” (EJNMMI Radiopharmacy and Chemistry, 2016)

Biological target: Gastrin-Releasing Peptide Receptor (human (endogenous in PC3)) (UniProt P30550)
Test: radioligand binding; displacement of the small-molecule tracer [18F]PD410 from PC3 cells by increasing concentrations of the peptide

Chain of Gastrin-Releasing Peptide Receptor (human (endogenous in PC3)) (P30550 whole entry): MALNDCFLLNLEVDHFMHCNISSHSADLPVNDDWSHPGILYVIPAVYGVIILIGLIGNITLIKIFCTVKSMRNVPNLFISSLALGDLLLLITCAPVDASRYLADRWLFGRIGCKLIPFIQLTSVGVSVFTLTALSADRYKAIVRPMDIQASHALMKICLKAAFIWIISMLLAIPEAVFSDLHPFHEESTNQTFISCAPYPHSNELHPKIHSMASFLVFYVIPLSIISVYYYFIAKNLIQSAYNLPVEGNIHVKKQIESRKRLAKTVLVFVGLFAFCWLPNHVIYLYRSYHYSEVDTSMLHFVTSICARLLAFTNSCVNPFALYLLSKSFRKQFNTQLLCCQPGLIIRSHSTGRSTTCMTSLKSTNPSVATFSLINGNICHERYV

- IC50: 0.1 nM
Substance: Glu[Aca-BN(7-14)]2 (peptide)
